Experimental data reported in patent US7169567 (GENERAL HOSPITAL, dated 2007).
Where no end group is shown, it is not given here.

How the values were obtained:
Experiment in all cases: cell-based or functional assay
[1] = target: T1, truncated rat PTH-1 receptor rΔNt (rat, UniProt P25961 182-591)
T1 sequence: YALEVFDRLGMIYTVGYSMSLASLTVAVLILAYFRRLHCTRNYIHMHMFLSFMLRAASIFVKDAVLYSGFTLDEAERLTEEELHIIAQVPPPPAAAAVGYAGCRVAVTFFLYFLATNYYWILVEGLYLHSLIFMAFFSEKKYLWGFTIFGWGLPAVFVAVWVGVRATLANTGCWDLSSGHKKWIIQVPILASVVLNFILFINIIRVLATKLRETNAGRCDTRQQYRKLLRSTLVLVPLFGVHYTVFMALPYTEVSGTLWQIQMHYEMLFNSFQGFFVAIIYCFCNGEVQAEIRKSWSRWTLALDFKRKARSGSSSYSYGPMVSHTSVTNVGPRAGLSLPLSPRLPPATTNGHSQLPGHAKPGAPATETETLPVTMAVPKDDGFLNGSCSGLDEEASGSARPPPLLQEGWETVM

[2] = target: intact rat PTH-1 receptor with HA epitope tag (rWT-HA) (rat, UniProt P25961 23-92; P25961 27-591)
intact rat PTH-1 receptor with HA epitope tag (rWT-HA), sequence (P25961 whole entry, one chain of several): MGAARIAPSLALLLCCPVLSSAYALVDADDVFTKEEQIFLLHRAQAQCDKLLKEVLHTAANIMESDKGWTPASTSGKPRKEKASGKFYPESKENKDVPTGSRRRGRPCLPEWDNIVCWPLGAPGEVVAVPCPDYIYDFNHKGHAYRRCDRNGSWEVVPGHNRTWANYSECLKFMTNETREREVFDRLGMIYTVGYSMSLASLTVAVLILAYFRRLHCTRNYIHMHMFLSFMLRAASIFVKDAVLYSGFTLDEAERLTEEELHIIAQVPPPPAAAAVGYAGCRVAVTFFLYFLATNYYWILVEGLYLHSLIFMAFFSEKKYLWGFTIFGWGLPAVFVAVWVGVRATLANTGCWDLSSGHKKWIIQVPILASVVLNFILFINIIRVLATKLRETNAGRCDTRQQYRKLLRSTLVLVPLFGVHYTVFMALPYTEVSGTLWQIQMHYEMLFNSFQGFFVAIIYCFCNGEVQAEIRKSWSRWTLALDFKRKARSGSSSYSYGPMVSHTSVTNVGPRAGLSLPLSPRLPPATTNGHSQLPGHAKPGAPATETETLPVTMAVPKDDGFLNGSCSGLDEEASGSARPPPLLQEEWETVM

human PTH-1 receptor = target: T2, human PTH-1 receptor (human, UniProt Q03431 27-593)
T2 sequence (looked up): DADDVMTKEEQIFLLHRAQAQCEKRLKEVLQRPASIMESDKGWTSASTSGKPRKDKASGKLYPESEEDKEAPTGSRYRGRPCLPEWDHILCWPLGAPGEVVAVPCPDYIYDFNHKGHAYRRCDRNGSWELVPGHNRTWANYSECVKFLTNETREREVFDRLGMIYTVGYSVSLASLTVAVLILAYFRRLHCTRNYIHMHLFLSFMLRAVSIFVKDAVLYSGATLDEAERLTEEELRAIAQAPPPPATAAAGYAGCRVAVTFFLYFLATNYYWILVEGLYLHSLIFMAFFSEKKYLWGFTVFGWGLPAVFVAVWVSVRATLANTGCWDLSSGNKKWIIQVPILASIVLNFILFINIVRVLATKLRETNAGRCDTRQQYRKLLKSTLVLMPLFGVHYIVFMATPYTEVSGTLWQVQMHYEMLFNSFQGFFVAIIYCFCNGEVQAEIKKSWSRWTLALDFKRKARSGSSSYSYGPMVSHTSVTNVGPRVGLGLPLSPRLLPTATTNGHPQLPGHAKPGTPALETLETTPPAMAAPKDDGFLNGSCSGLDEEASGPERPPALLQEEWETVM

- cAMP potency relative to PTH(1-34) [1]: 2 orders of magnitude
- cAMP formation [2]: 15 fold
- cAMP formation over the basal level (human PTH-1 receptor): ~20 fold
- cAMP potency relative to PTH(1-34) (human PTH-1 receptor): ~5 orders of magnitude
B1: rat PTH(1-14) (peptide, UniProt P04089 32-45, looked up)
peptide: AVSEIQLMHNLGKH-NH2
